Where two headings read alike, the source gives them in different places.
Legend:
[1] = test system: rG1 (5'-Alexa Fluor 647) (RNA, G4) ACCGGGGCAGGGGAAGAGGGGG; assay: fluorescence quenching titration; settings: K+ 100 mM (KCl); 10 mM Tris, 5% DMSO; 100 nM RNA; single site fit; apparent
HNRNPH1 full-length [2] = target: T1, HNRNPH1 full-length (UniProt P31943 1-449); assay: antibody-based RNA binding assay
T1 sequence: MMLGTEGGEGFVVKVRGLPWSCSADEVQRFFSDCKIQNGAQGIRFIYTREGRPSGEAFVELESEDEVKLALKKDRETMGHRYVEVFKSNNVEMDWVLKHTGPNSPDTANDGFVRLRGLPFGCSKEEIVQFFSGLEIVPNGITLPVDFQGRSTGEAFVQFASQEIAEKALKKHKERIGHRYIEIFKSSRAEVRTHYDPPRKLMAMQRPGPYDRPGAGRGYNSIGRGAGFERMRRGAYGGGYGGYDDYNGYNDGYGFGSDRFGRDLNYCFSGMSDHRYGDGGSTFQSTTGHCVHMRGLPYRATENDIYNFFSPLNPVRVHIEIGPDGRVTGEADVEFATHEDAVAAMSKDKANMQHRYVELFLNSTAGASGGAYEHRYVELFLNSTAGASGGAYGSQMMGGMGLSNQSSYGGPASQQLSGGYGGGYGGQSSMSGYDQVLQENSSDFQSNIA

HNRNPH1 full-length [3] = target: T1, HNRNPH1 full-length; assay: EMSA
HNRNPH1 full-length [4] = target: T1, HNRNPH1 full-length; assay: competition
HNRNPH1 full-length [5] = target: T1, HNRNPH1 full-length; assay: EMSA; remark: listed apart in the source
HNRNPH1 qRRM2 = target: T2, HNRNPH1 qRRM2 (UniProt P31943 103-194); assay: SPR
T2 sequence: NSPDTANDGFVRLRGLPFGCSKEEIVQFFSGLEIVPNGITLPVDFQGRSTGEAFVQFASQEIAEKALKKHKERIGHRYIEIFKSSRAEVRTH

HNRNPH1 delta1-103 = target: T3, HNRNPH1 delta1-103 (UniProt P31943 104-449, del1-103); assay: SPR
T3 sequence: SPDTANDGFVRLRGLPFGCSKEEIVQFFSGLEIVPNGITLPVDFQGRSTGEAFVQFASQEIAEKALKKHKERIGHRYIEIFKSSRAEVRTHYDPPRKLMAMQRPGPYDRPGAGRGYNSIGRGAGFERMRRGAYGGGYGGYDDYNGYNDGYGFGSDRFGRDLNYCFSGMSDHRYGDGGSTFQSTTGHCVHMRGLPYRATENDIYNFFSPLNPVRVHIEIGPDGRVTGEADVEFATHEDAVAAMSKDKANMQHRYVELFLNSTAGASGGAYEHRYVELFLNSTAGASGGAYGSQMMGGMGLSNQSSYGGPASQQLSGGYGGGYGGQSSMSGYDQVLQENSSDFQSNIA

HNRNPH1 full-length [6] = target: T1, HNRNPH1 full-length; assay: SPR
HNRNPH1 qRRM1-2 = target: T4, HNRNPH1 qRRM1-2 (UniProt P31943 1-194); assay: SPR
T4 sequence: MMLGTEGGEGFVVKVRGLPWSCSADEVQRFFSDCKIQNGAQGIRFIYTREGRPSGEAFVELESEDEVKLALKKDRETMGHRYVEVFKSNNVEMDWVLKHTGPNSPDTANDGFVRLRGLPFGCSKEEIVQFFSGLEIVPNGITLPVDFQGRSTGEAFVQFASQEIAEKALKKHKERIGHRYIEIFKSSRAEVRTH

HNRNPH1 qRRM3 = target: T5, HNRNPH1 qRRM3 (UniProt P31943 277-381); assay: SPR
T5 sequence: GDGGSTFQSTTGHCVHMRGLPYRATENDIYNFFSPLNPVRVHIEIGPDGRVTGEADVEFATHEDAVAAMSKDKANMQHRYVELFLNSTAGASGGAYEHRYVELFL

HNRNPH1 qRRM1 = target: T6, HNRNPH1 qRRM1 (UniProt P31943 1-102); assay: SPR
T6 sequence: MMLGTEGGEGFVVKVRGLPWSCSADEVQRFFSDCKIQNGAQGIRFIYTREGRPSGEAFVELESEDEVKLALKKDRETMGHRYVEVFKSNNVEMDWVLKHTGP

[7] = target: T7, HNRNPH1 qRRM2-3 (qRRM2-GYR-qRRM3) (UniProt P31943 103-381); assay: SPR
T7 sequence: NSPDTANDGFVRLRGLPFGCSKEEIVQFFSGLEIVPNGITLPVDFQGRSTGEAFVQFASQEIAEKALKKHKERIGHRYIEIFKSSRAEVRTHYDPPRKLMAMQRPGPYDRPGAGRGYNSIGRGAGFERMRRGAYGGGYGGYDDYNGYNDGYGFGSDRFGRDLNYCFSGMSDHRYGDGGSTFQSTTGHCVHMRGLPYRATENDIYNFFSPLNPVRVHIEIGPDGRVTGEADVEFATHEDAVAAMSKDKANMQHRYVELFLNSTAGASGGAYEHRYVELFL

NCCOc1cc(C(=O)Nc2cc(OCCN)c3ccccc3n2)nc(C(=O)Nc2cc(OCCN)c3ccccc3n2)c1
KD^app [1]: 4.6 µM

B1: rG1 3'-biotin (structured_RNA)
RNA: ACCGGGGCAGGGGAAGAGGGGGAUU
Kd (HNRNPH1 full-length [2]): 30 ± 2 nM

B2: rG2b (ssRNA)
RNA: GUGGGCGGGGAGGAGGACGCGGUGGAAU
binding result (HNRNPH1 full-length [3]): binds

B3: rG1 nonbiotinylated competitor (structured_RNA)
RNA: ACCGGGGCAGGGGAAGAGGGGGAUU
IC50 (HNRNPH1 full-length [4]): 84 nM

B4: Linker (ssRNA)
RNA: GAUCGUGGAGGCAUGAGCAGAGGUG
binding result (HNRNPH1 full-length [5]): no binding

B5: rG1 5'-biotin (SPR) (structured_RNA)
RNA: ACCGGGGCAGGGGAAGAGGGGG
Kd (HNRNPH1 qRRM2): 22 nM
Kd (HNRNPH1 delta1-103): 2.4 nM
Kd (HNRNPH1 full-length [6]): 4.8 nM
Kd (HNRNPH1 qRRM1-2): 1.5 nM
Kd (HNRNPH1 qRRM3): 315 nM
Kd (HNRNPH1 qRRM1): 30 nM
Kd [7]: 97 nM

B6: rG2a (ssRNA)
RNA: AGCAGAGGUGGGCGGGGAGGAGGAC
binding result (HNRNPH1 full-length [3]): binds
